The target in test [1] is human GC-B (membrane guanylate cyclase B, natriuretic peptide receptor) (human) (UniProt P20594).
In test [2] the target is human GC-A (membrane guanylate cyclase A, natriuretic peptide receptor) (human) (UniProt P16066).
Test [3] shares this target. The source holds these as a separate data set.
Test [4] addresses human GC-B (membrane guanylate cyclase B, natriuretic peptide receptor) (human) (UniProt P20594). This is another data set of the same source.

Chain of UniProt P16066 (P16066 33-1061): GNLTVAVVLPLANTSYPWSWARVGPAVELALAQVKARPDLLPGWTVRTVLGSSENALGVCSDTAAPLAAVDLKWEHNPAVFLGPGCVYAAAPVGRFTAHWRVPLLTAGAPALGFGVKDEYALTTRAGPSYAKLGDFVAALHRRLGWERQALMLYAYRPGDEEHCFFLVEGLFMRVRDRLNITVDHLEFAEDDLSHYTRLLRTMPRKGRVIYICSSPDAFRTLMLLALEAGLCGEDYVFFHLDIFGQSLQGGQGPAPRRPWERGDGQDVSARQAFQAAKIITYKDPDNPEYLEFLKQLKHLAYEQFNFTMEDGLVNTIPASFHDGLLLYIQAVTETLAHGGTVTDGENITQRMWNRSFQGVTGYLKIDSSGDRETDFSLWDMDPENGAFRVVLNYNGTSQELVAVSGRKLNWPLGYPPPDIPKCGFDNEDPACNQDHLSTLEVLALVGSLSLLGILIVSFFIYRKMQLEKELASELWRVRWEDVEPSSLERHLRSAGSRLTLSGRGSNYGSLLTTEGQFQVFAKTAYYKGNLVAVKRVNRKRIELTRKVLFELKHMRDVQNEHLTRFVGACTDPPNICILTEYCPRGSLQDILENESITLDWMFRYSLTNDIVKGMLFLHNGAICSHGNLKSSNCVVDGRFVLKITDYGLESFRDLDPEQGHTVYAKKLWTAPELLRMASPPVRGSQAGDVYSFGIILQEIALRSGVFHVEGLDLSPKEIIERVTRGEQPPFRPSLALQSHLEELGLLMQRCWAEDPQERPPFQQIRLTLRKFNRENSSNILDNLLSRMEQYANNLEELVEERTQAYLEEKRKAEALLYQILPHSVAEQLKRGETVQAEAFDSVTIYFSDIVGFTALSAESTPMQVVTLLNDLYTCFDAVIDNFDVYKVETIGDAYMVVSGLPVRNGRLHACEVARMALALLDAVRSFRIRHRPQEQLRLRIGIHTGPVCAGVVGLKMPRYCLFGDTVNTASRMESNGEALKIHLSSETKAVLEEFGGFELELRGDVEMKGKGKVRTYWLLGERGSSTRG
Chain of UniProt P20594 (P20594 23-1047): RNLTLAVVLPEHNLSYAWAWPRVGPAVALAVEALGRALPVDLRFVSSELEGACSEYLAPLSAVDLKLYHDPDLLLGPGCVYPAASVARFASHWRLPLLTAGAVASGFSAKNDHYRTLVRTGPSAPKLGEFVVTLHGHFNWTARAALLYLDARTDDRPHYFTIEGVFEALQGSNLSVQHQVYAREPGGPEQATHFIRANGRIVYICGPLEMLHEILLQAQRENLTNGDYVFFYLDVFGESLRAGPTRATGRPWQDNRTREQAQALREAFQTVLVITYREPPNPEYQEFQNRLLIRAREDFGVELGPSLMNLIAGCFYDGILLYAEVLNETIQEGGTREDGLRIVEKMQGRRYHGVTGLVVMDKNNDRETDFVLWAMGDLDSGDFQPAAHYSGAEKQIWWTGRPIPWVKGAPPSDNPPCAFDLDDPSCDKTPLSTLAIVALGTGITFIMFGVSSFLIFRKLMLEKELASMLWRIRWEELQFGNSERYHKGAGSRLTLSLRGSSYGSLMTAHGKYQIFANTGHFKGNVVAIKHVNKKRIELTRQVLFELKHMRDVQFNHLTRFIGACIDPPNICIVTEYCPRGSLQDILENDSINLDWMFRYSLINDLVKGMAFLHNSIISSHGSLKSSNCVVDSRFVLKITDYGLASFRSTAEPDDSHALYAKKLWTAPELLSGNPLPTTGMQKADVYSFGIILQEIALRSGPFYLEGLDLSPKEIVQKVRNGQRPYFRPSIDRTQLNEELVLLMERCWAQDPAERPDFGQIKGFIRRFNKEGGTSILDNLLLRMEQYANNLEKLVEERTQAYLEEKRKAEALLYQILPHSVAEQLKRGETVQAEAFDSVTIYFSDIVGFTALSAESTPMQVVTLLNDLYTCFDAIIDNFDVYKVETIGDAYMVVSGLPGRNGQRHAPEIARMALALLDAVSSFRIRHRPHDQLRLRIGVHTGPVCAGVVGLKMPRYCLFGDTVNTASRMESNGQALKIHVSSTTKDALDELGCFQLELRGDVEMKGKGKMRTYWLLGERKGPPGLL

Turning to human c-type natriuretic peptide (1-53), the stimulation of cGMP production in HEK293T cell membranes with increasing CNP, saturation above 4 μM in test [1] was 10 fold.

In the case of “human atrial natriuretic factor (1-28) (peptide)”, the stimulation of cGMP production in HEK293T cell membranes with increasing ANP, saturation above 4 μM in test [2] came out at 10 fold.

For “retinal degeneration protein 3 (RD3) (from UniProt Q7Z3Z2 1-195) (natural protein)”, in test [3], the IC50 of inhibition of guanylate cyclase activity (cGMP synthesis) of GC-A in HEK293T cell membranes activated by 2 μM ANP, increasing RD3; inhibition not complete at 0.5-1 μM RD3 was 24 nM. In test [4], this substance returned an IC50 of inhibition of guanylate cyclase activity (cGMP synthesis) of GC-B in HEK293T cell membranes activated by 2 μM CNP, increasing RD3; inhibition not complete at 0.5-1 μM RD3 of 29 nM.

(Values after article PMC9812585.)
